Reference: the supplement of paper PMC9170038

Tested on: K4 kissing-loop RNA reporter
Test: apparent KD of K4 kissing-loop reporter; higher = weaker reporter binding
Settings: Eterna round: R107
Method: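 RNA-MaP round R107: designed RNA switches with theophylline, tryptophan, arginine or FMN aptamers are transcribed on-chip within common flanks. They are titrated with a labelled K4 kissing-loop RNA reporter in RNA-MaP buffer (100 mM Tris pH 7.5, 80 mM KCl, 4 mM MgCl2), without ligand or with the indicated ligand. Median apparent KD per design.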

[1] = input ligand: theophylline 20 uM
[2] = input ligand: tryptophan 2.4 mM
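Also: bound reporter read as fluorescence of individual clusters on recovered sequencing chips by microscopy, with normalized cluster intensities fitted with a binding model.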

Sequence: GGAUAGGACAGAGGAUAUGGACAGUCUACAAAGUAGGCUGAAAAUCCUUGAAUGGAAGUGAUGUUUCCAGAAGGCUGUCCUAUCG [FmnBX 20 - #SwitchBubble #StaticStem #Palindromic]
- apparent KD of K4 kissing-loop reporter (input ligand: FMN 200 uM): 558 nM
- apparent KD of K4 kissing-loop reporter (input ligand: arginine 13.2 mM): 145 nM
- apparent KD of K4 kissing-loop reporter (input ligand: none): 165 nM
- apparent KD of K4 kissing-loop reporter [1]: 164 nM
- apparent KD of K4 kissing-loop reporter [2]: 150 nM

Sequence: GGAUAGGACAGAGGAUAUGGUAGCUAGGCAAGAAUAACUUGUCUAGCAUCCAUGAGGAGUGAUGUUCCAGAAGGCUGUCCUAUCG [FmnBX 5 - #SwitchBubble #StaticStem]
- apparent KD of K4 kissing-loop reporter (input ligand: FMN 200 uM): 235 nM
- apparent KD of K4 kissing-loop reporter (input ligand: arginine 13.2 mM): 145 nM
- apparent KD of K4 kissing-loop reporter (input ligand: none): 211 nM
- apparent KD of K4 kissing-loop reporter [1]: 150 nM
- apparent KD of K4 kissing-loop reporter [2]: 165 nM

Sequence: GGAUAGGAGAGAGGAUAUGGGCUAGGCAAGAAUAACUUGUCUAGCAAAUCCAUGAGGAGUGAUGUUCCAGAAGGCUCUCCUAUCG [FmnBX 1 G9+C77]
- apparent KD of K4 kissing-loop reporter (input ligand: FMN 200 uM): 996 nM
- apparent KD of K4 kissing-loop reporter (input ligand: arginine 13.2 mM): 148 nM
- apparent KD of K4 kissing-loop reporter (input ligand: none): 153 nM
- apparent KD of K4 kissing-loop reporter [1]: 143 nM
- apparent KD of K4 kissing-loop reporter [2]: 139 nM

Sequence: GGAUAGGAUAGAGGAUAUGGACUAGGCAAGAAUAACUUGUCUAGUAAAUCCAUGAGGAGUGAUGUUCCAGAAGGCUGUCCUAUCG [MatMod 3 - Jieux - Exclusion - FMN B]
- apparent KD of K4 kissing-loop reporter (input ligand: FMN 200 uM): 514 nM
- apparent KD of K4 kissing-loop reporter (input ligand: arginine 13.2 mM): 200 nM
- apparent KD of K4 kissing-loop reporter (input ligand: none): 226 nM
- apparent KD of K4 kissing-loop reporter [1]: 224 nM
- apparent KD of K4 kissing-loop reporter [2]: 185 nM

Sequence: GGAUAGGAUAGAGGAUAUGGUUUAUGCAGAAAUAACUUAUUGUGUAAAUCCAUAGGGAGUGAUGUUCCAGAAGGCUGUCCUAUCG [MatMod 15 - Jieux - Exclusion - FMN B]
- apparent KD of K4 kissing-loop reporter (input ligand: FMN 200 uM): 316 nM
- apparent KD of K4 kissing-loop reporter (input ligand: arginine 13.2 mM): 187 nM
- apparent KD of K4 kissing-loop reporter (input ligand: none): 209 nM
- apparent KD of K4 kissing-loop reporter [1]: 241 nM
- apparent KD of K4 kissing-loop reporter [2]: 180 nM

Sequence: GGAUCCACCAGUGAUGUUGGAGAAAACUCCAAGGAUAUGACGAAAGUCAGAAGGUGGUAGACUGGGCAAAGUCCGGUCGGAUCCA [FmnA10 G66]
- apparent KD of K4 kissing-loop reporter (input ligand: FMN 200 uM): 3150 nM
- apparent KD of K4 kissing-loop reporter (input ligand: arginine 13.2 mM): 68.5 nM
- apparent KD of K4 kissing-loop reporter (input ligand: none): 144 nM
- apparent KD of K4 kissing-loop reporter [1]: 49.9 nM
- apparent KD of K4 kissing-loop reporter [2]: 355 nM

Sequence: GGAUCCACCAGUGAUGUUGGAGAAAACUCCGAGGAUAUGACGAAAGUCAGAAGGUGGUAGACUGGACAAAGUCCGGUCGGAUCCA [FmnA 24 #SwitchBubble #K4Early]
- apparent KD of K4 kissing-loop reporter (input ligand: FMN 200 uM): 790 nM
- apparent KD of K4 kissing-loop reporter (input ligand: arginine 13.2 mM): 83.3 nM
- apparent KD of K4 kissing-loop reporter (input ligand: none): 288 nM
- apparent KD of K4 kissing-loop reporter [1]: 162 nM
- apparent KD of K4 kissing-loop reporter [2]: 101 nM

Sequence: GGCACGGGCUCGGCCGCCACUCCCGCGGGUCGAAAGGUCCGCUACUGAGUGAUGUUCGGUUGGAGGAGGACCGGGAGCCCGUGCC [#2 Exclusion - Tryptophan B Attempt #23 (HarryS)]
- apparent KD of K4 kissing-loop reporter (input ligand: FMN 200 uM): 130 nM
- apparent KD of K4 kissing-loop reporter (input ligand: arginine 13.2 mM): 91.6 nM
- apparent KD of K4 kissing-loop reporter (input ligand: none): 108 nM
- apparent KD of K4 kissing-loop reporter [1]: 99.9 nM
- apparent KD of K4 kissing-loop reporter [2]: 98.4 nM

Sequence: GGCACUUUUGGUAGGAACCAUCUACCUCUAUAGGAUAUGCCGAAAGGCAGAAGGAUAGACCUACAGAGUGAUGUUCUGCGUGCCU
- apparent KD of K4 kissing-loop reporter (input ligand: FMN 200 uM): 573 nM
- apparent KD of K4 kissing-loop reporter (input ligand: arginine 13.2 mM): 150 nM
- apparent KD of K4 kissing-loop reporter (input ligand: none): 330 nM
- apparent KD of K4 kissing-loop reporter [1]: 203 nM
- apparent KD of K4 kissing-loop reporter [2]: 211 nM

Sequence: GGCAGUGAUGUUGCCUAAGCAACGCAUGCGGAGGAUAUUCGUUCGGGAAGAAGGCCGCAGCGUUCUCUCGCGAGUGAUGUUCGCA [Same State FMN A GF 22]
- apparent KD of K4 kissing-loop reporter (input ligand: FMN 200 uM): 158 nM
- apparent KD of K4 kissing-loop reporter (input ligand: arginine 13.2 mM): 160 nM
- apparent KD of K4 kissing-loop reporter (input ligand: none): 173 nM
- apparent KD of K4 kissing-loop reporter [1]: 166 nM
- apparent KD of K4 kissing-loop reporter [2]: 147 nM

Sequence: GGCAUCCAUGGACCUAGUGAUGUUAGGUACCGAGGACCGGUACGGCCGCCACUCGGCCAUGGAUGCCGCAAUCGGAAACGAUUGC
- apparent KD of K4 kissing-loop reporter (input ligand: FMN 200 uM): 406 nM
- apparent KD of K4 kissing-loop reporter (input ligand: arginine 13.2 mM): 243 nM
- apparent KD of K4 kissing-loop reporter (input ligand: none): 408 nM
- apparent KD of K4 kissing-loop reporter [1]: 460 nM
- apparent KD of K4 kissing-loop reporter [2]: 345 nM

Sequence: GGCCAAAGAGAGUGAUGUUCUCAAUAUGAAGGAGCGCCCGAAAGGGCAGGUAGGUCGCAUAACGGCCACCUACGAAAAGUAGGAA [#SwitchBubble 4 #K4Early]
- apparent KD of K4 kissing-loop reporter (input ligand: FMN 200 uM): 91.3 nM
- apparent KD of K4 kissing-loop reporter (input ligand: arginine 13.2 mM): 96.6 nM
- apparent KD of K4 kissing-loop reporter (input ligand: none): 94.5 nM
- apparent KD of K4 kissing-loop reporter [1]: 109 nM
- apparent KD of K4 kissing-loop reporter [2]: 96.5 nM

Sequence: GGCCACGGGCGAGGAUAUGGGCAUGAUUCAUCCUGGAGUGAUGUUCCAGGUCCUACGUUUCUAGCACCAGAAGGCGUUUGUUGCU [Enistein]
- apparent KD of K4 kissing-loop reporter (input ligand: FMN 200 uM): 131 nM
- apparent KD of K4 kissing-loop reporter (input ligand: arginine 13.2 mM): 196 nM
- apparent KD of K4 kissing-loop reporter (input ligand: none): 215 nM
- apparent KD of K4 kissing-loop reporter [1]: 180 nM
- apparent KD of K4 kissing-loop reporter [2]: 165 nM

Sequence: GGCGGCCGCGCGCAAGCGCGGCCGGCCGAUACCAGCGCGACGGCGCGCCCUUGGCAGCGGCGCCGAGUGAUGUUCGGCCUGCCGU [#2 Same State - Theophylline A Attempt #15 (HarryS)]
- apparent KD of K4 kissing-loop reporter (input ligand: FMN 200 uM): 151 nM
- apparent KD of K4 kissing-loop reporter (input ligand: arginine 13.2 mM): 81.1 nM
- apparent KD of K4 kissing-loop reporter (input ligand: none): 146 nM
- apparent KD of K4 kissing-loop reporter [1]: 94.2 nM
- apparent KD of K4 kissing-loop reporter [2]: 96.4 nM

Sequence: GGGAAUUACGGAGGAUAUGCACUGAGGAGGAGAAUAUAGUGAUGUUAUAUAAGAGGAAGGAGAAGAGUAGAAGGCCGUGGAAAGG [SSFMNB.D]
- apparent KD of K4 kissing-loop reporter (input ligand: FMN 200 uM): 226 nM
- apparent KD of K4 kissing-loop reporter (input ligand: arginine 13.2 mM): 161 nM
- apparent KD of K4 kissing-loop reporter (input ligand: none): 203 nM
- apparent KD of K4 kissing-loop reporter [1]: 217 nM
- apparent KD of K4 kissing-loop reporter [2]: 141 nM

Sequence: GGGAGUAGUGCGGCCGCCACUGAGAAAGAAGAAGAAUAUAGUGAUGUUAUAUAGGAAUUAAAGAACAGGACCGGGCAUUAGAUUU [SSTRyptB.O]
- apparent KD of K4 kissing-loop reporter (input ligand: FMN 200 uM): 210 nM
- apparent KD of K4 kissing-loop reporter (input ligand: arginine 13.2 mM): 208 nM
- apparent KD of K4 kissing-loop reporter (input ligand: none): 219 nM
- apparent KD of K4 kissing-loop reporter [1]: 163 nM
- apparent KD of K4 kissing-loop reporter [2]: 143 nM
